Data published in publication PMC10871369 (bioRxiv, 2024).

Columns and labels:
B55 [1] = test: Binding of proteins to panel of purified B55 mutants; settings: panel of B55 mutants covering patch 1-3 residues
B55 [2] = test: MS of B55 WT, V228A, I284A, S287A and D340A immunopurifications; type: binding; settings: B55 S287A vs WT immunopurifications

Molecule | B55 patch requirement for binding (B55 [1]) | requirement of B55 S287 (patch 2) for binding (B55 [2])
CDCA4: helix-loop-helix B55 binder (SERTA domain) (protein, UniProt Q9BXL8 1-241, looked up) Cell division …: MFARGLKRKCVGHEEDVEGALAGLKTVSSYSLQRQSLLDMSLVKLQLCHMLVEPNLCRSVLIANTVRQIQEEMTQDGTWRTVAPQAAERAPLDRLVSTEILCRAAWGQEGAHPAPGLGDGHTQGPVSDLCPVTSAQAPRHLQSSAWEMDGPRENRGSFHKSLDQIFETLETKNPSCMEELFSDVDSPYYDLDTVLTGMMGGARPGPCEGLEGLAPATPGPSSSCKSDLGELDHVVEILVET | requirements from residues in patch 1 and 3 | 
IER2: helix-loop-helix B55 binder (protein, UniProt Q9BTL4 1-223, looked up) Immediate early response gene …: MEVQKEAQRIMTLSVWKMYHSRMQRGGLRLHRSLQLSLVMRSARELYLSAKVEALEPEVSLPAALPSDPRLHPPREAESTAETATPDGEHPFPEPMDTQEAPTAEETSACCAPRPAKVSRKRRSSSLSDGGDAGLVPSKKARLEEKEEEEGASSEVADRLQPPPAQAEGAFPNLARVLQRRFSGLLNCSPAAPPTAPPACEAKPACRPADSMLNVLVRAVVAF | requirements from residues in patch 1 and 3 | does not
